Measured values: PMC4619592

How the values were obtained:
[1] = target: Truncated P-domain of GNNV capsid protein (residues 214-338) (orange-spotted grouper nervous necrosis virus (OSGNNV)); experiment: SEC; purified P-domain on Superdex 75 10/300 GL in the presence of Ca2+, against protein standards
[2] = target: Truncated P-domain of GNNV capsid protein (residues 214-338) (orange-spotted grouper nervous necrosis virus (OSGNNV)); experiment: crystal structure; truncated P-domain (214-338), 1.2 Å; crystals from 0.2 M Ca acetate, 0.1 M MES (pH 6.5), 10% PEG8000
[3] = target: N-ARM deletion mutant of GNNV capsid protein (residues 35-338) (orange-spotted grouper nervous necrosis virus (OSGNNV)); experiment: SDS-PAGE; oligomerization of three CPs in solution, bands compared to protein standards
[4] = target: delta-P-domain mutant of GNNV capsid protein (residues 35-217) (orange-spotted grouper nervous necrosis virus (OSGNNV)); experiment: as above
[5] = target: delta-P-domain mutant of GNNV capsid protein (residues 35-217) (orange-spotted grouper nervous necrosis virus (OSGNNV)); experiment: crystal structure; T = 1 delta-P-domain mutant (35-217), 3.1 Å; crystals from 0.2 M MgCl2, 0.1 M HEPES-Na (pH 7.5), 30% PEG400
[6] = target: Grouper nervous necrosis virus capsid protein, full length (338 residues) (orange-spotted grouper nervous necrosis virus (OSGNNV)); experiment: SDS-PAGE; oligomerization of three CPs in solution, bands compared to protein standards

For “Truncated P-domain of GNNV capsid protein (residues 214-338) (domain or fragment)”, the stoichiometry N [1] was 3 and the stoichiometry N [2] was 3.
“N-ARM deletion mutant of GNNV capsid protein (residues 35-338) (domain or fragment)” was tested, and the stoichiometry N [3] was 3.
“delta-P-domain mutant of GNNV capsid protein (residues 35-217) (domain or fragment)” gave a stoichiometry N [4] of 2 and a stoichiometry N [5] of 60.
With “Grouper nervous necrosis virus capsid protein, full length (338 residues) (natural protein)” the stoichiometry N [6] was 3.
